# Laboratory results from patent US20250177521A1.
# Target: Fc gamma receptor (FcγR)
# Test: cell-based or functional assay
"mean fold difference in CD107a on CD3-CD56+ NK cells against samples without mAbs, RA","mean fold difference in CD107a on CD3-CD56+ NK cells against samples without mAbs, SLE",Substance
3.1 fold,1.8 fold,Obinutuzumab (antibody)
1.9 fold,1.4 fold,"non-glycoengineered, wild type glycosylated OBZ (antibody)"
1.2 fold,1.5 fold,rituximab (antibody)
